The values that follow come from patent publication US20080317746A1 (MICROMET, published 2008).

The target of assay [1] is T1, human interleukin-2 (hIL2) (human, UniProt P60568 21-153).
T1 construct: mature; The two home-made supplies carry a C-terminal hexahistidine tag, and the E. coli one also an N-terminal Met; also called recombinant human hIL2; hIL2 antigen
The assay can be described thus: FACS on NKL cells loaded with recombinant hIL2.

Assay [2] has as its target T2, human IL2 receptor on NKL cells (human, UniProt P01589 22-272; P14784 27-551; P31785 23-369).
T2 construct: whole, on cells; also called hIL2 receptor; IL2 receptor component(s)
T2 sequence (looked up) 1: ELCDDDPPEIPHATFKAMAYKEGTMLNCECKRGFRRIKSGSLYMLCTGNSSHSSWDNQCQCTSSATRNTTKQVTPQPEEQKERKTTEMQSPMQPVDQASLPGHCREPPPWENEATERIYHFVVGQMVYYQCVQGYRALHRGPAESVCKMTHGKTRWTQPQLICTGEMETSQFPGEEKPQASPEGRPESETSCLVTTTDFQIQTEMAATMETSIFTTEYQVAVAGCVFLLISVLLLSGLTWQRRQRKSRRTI
T2 sequence (looked up) 2: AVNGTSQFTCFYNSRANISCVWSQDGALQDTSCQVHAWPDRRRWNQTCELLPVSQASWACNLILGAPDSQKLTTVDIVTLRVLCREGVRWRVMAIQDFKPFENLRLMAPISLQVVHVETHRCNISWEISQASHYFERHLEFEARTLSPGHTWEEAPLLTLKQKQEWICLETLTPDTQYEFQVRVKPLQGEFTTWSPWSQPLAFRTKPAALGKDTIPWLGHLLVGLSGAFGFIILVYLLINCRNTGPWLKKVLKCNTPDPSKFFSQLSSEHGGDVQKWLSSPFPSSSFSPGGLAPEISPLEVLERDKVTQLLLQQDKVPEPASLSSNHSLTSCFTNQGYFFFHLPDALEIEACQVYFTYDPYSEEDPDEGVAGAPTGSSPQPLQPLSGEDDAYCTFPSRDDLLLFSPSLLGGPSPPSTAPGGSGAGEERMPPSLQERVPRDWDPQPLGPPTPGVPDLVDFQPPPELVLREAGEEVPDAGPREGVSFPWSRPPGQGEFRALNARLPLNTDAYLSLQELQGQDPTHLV
T2 sequence (looked up) 3: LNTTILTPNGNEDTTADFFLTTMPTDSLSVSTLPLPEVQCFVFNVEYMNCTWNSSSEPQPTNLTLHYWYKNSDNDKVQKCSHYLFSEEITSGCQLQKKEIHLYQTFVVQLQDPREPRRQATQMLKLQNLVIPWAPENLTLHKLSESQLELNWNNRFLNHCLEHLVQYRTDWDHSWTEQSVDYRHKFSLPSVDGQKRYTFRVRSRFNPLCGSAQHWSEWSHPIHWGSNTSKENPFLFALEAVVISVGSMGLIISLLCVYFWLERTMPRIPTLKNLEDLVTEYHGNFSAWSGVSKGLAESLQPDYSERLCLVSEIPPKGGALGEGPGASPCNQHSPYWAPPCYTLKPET
The assay can be described thus: FACS on hIL2-deprived NKL cells without hIL2; fluorescence-labeled goat anti-human IgG detection.

Assay [3] deals with T1, human interleukin-2 (hIL2). The assay can be described thus: cell-based or functional assay.
The target of assay [4] is T1, human interleukin-2 (hIL2). The assay can be described thus: Cell Surface (binding to cell surface-associated hIL2), method not described; Cell Surface, not BiaCore.
Assay [5] has as its target T1, human interleukin-2 (hIL2). The assay can be described thus: BiaCore, format not described.
The target of assay [6] is T1, human interleukin-2 (hIL2). The assay can be described thus: cell-based or functional assay. The source holds these as a separate data set.
Assay [7] concerns the target T3, Proleukin (formulated recombinant hIL2, expressed in E. coli), PEG-biotinylated (human, UniProt P60568 22-153, PEG-biotinylated (site not stated)).
T3 construct: also called PEG-biotinylated Proleukin; hIL2 antigen
In words: ELISA: PEG-biotinylated Proleukin on streptavidin plate, 293 cell supernatant antibody, anti-human IgG-HRP, ABTS, absorbance at 405 nm. A general note: ELISA stands for enzyme-linked immunosorbent assay.

Assay [8] has as its target T3, Proleukin (formulated recombinant hIL2, …). The description is as above. This is another data set of the same source.
For assay [9] the target is unchanged. Described as above. This is another data set of the same source.

Where two headings read alike, the source gives them in different places.

T3 sequence (P60568 other isoform, or with tags, fused parts or gaps limits assumed): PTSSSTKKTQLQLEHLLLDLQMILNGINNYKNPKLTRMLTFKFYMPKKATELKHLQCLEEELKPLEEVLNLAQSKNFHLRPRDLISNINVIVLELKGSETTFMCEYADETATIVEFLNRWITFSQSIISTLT
T1 sequence (P60568 21-153): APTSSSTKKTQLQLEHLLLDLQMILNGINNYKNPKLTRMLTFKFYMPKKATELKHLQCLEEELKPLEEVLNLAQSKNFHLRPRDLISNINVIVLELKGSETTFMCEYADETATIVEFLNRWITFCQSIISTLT

B1: mAb202 (commercially available from R&D Systems) (antibody, V domains shown)
VH: DVRLVESGGGLVKPGGSLKLSCAAYGFTFSSYTLAWVRQTPEKRLEWVAAIDSSSYTYSPDTVRGRFTISRDNAKNTLYLQMSSLKSEDTAMYYCTRDSNWDALDYWGQGTSVIVSS
VL: DIVMTQSQKFMSTSVGDRVSVTCKASQNVGTNVGWYQQKPGQSPKALIYSASFRYSGVPDRFTGSGSGTDFSLTISNVKSEDLAEYFCQQYYTYPYTFGGGTKLEIK
notes: Mouse monoclonal antibody; also called original mAb; parental mAb202
Turning to B1, the binding result in assay [1] is “binds”.

B2: Anti-IL2 (humanized anti-IL2 IgG1 antibody) (antibody, V domains shown)
VH: EVQLVESGGGLVQPGGSLRLSCAASGFTFSSYTLAWVRQAPGKGLEWVAAIDSSSYTYSPDTVRGRFTISRDNAKNSLYLQMNSLRAEDTAVYYCARDSNWDALDYWGQGTTVTVSS
VL: DIQMTQSPSSLSASVGDRVTITCKASQNVGTNVGWYQQKPGKAPKALIYSASFRYSGVPSRFSGSGSGTDFTLTISSLQPEDFATYYCQQYYTYPYTFGGGTKVEIKR
notes: IgG1; Its VL carries KAPKA in framework 2
For orientation: Kd means a measure of binding affinity in units of concentration. Read a high Kd as a looser complex. With B2, the binding result in assay [2] was “no binding”. In addition, in assay [3], the “IC50, IL2-dependent proliferation of primary human NK cells (donor shown)” value is roughly 300 pM and the “IC50 of IL2-dependent CD124 cell surface expression on CTLL-2 cells” value was roughly 330 pM. This molecule also displayed an equilibrium dissociation constant (Kd) in assay [4] of 2500 pM. In assay [5], this molecule returned a Kd of 680 pM. In assay [6], the “IC50, IFN-gamma production by Human NK Cells” value came out at 130 pM and the “IC50, Proliferation of Human Primary NK Cells” value stood at 100 pM.

B3: MHM + hHC (VL with human framework 2, mouse frameworks 1 and 3) (antibody, human IgG1, V domains shown)
VH: EVQLVESGGGLVQPGGSLRLSCAASGFTFSSYTLAWVRQAPGKGLEWVAAIDSSSYTYSPDTVRGRFTISRDNAKNSLYLQMNSLRAEDTAVYYCARDSNWDALDYWGQGTTVTVSS
VL: DIVMTQSQKFMSTSVGDRVSVTCKASQNVGTNVGWYQQKPGKAPKLLIYSASFRYSGVPDRFTGSGSGTDFSLTISNVKSEDLAEYFCQQYYTYPYTFGGGTKLEIK
notes: Human IgG1 and human Ckappa
The term EC50 (read off the curve) denotes the concentration at which the effect is half-maximal. Take B3: in assay [7], the “EC50 (read off the curve)” value is roughly 0.06 µg/mL.

B4: HMH + hHC (VL with human frameworks 1 and 3, mouse framework 2) (antibody, V domains shown)
VH: EVQLVESGGGLVQPGGSLRLSCAASGFTFSSYTLAWVRQAPGKGLEWVAAIDSSSYTYSPDTVRGRFTISRDNAKNSLYLQMNSLRAEDTAVYYCARDSNWDALDYWGQGTTVTVSS
VL: DIQMTQSPSSLSASVGDRVTITCKASQNVGTNVGWYQQKPGQSPKALIYSASFRYSGVPSRFSGSGSGTDFTLTISSLQPEDFATYYCQQYYTYPYTFGGGTKLEIK
notes: Human IgG1 and human Ckappa
On to B4, for which, in assay [7], the “EC50 (read off the curve)” value was roughly 0.06 µg/mL.

B5: cLC + hHC (chimeric light chain with humanized heavy chain) (antibody, human IgG1, V domains shown)
VH: EVQLVESGGGLVQPGGSLRLSCAASGFTFSSYTLAWVRQAPGKGLEWVAAIDSSSYTYSPDTVRGRFTISRDNAKNSLYLQMNSLRAEDTAVYYCARDSNWDALDYWGQGTTVTVSS
VL: DIVMTQSQKFMSTSVGDRVSVTCKASQNVGTNVGWYQQKPGQSPKALIYSASFRYSGVPDRFTGSGSGTDFSLTISNVKSEDLAEYFCQQYYTYPYTFGGGTKLEIK
notes: Human IgG1 C1, C2, C3 and human Ckappa; Tested as 293 cell supernatant; also called cLH+hHC
Take B5: in assay [8], the half-maximal effective concentration (EC50 (read off the curve)) is roughly 0.1 µg/mL.

B6: HMM + hHC (VL with human framework 1, mouse frameworks 2 and 3) (antibody, V domains shown)
VH: EVQLVESGGGLVQPGGSLRLSCAASGFTFSSYTLAWVRQAPGKGLEWVAAIDSSSYTYSPDTVRGRFTISRDNAKNSLYLQMNSLRAEDTAVYYCARDSNWDALDYWGQGTTVTVSS
VL: DIQMTQSPSSLSASVGDRVTITCKASQNVGTNVGWYQQKPGQSPKALIYSASFRYSGVPDRFTGSGSGTDFSLTISNVKSEDLAEYFCQQYYTYPYTFGGGTKLEIK
notes: Human IgG1 and human Ckappa
Turning to B6, the “EC50 (read off the curve)” value in [7] was roughly 0.06 µg/mL.

B7: hLC + hHC (humanized light chain with humanized heavy chain) (antibody, human IgG1, V domains shown)
VH: EVQLVESGGGLVQPGGSLRLSCAASGFTFSSYTLAWVRQAPGKGLEWVAAIDSSSYTYSPDTVRGRFTISRDNAKNSLYLQMNSLRAEDTAVYYCARDSNWDALDYWGQGTTVTVSS
VL: DIQMTQSPSSLSASVGDRVTITCKASQNVGTNVGWYQQKPGKAPKLLIYSASFRYSGVPSRFSGSGSGTDFTLTISSLQPEDFATYYCQQYYTYPYTFGGGTKVEIK
notes: Human IgG1 C1, C2, C3 and human Ckappa; Tested as 293 cell supernatant; also called hLH+hHC
In the case of B7, the “EC50 (read off the curve)” value in [8] was roughly 0.2 µg/mL.

B8: hLC_KAPKA + hHC (antibody, V domains shown)
VH: EVQLVESGGGLVQPGGSLRLSCAASGFTFSSYTLAWVRQAPGKGLEWVAAIDSSSYTYSPDTVRGRFTISRDNAKNSLYLQMNSLRAEDTAVYYCARDSNWDALDYWGQGTTVTVSS
VL: DIQMTQSPSSLSASVGDRVTITCKASQNVGTNVGWYQQKPGKAPKALIYSASFRYSGVPSRFSGSGSGTDFTLTISSLQPEDFATYYCQQYYTYPYTFGGGTKVEIK
notes: Human IgG1 and human Ckappa
As for B8, the “EC50 (read off the curve)” value in assay [9] is roughly 0.05 µg/mL.

B9: MMH + hHC (VL with human framework 3, mouse frameworks 1 and 2) (antibody, V domains shown)
VH: EVQLVESGGGLVQPGGSLRLSCAASGFTFSSYTLAWVRQAPGKGLEWVAAIDSSSYTYSPDTVRGRFTISRDNAKNSLYLQMNSLRAEDTAVYYCARDSNWDALDYWGQGTTVTVSS
VL: DIVMTQSQKFMSTSVGDRVSVTCKASQNVGTNVGWYQQKPGQSPKALIYSASFRYSGVPSRFSGSGSGTDFTLTISSLQPEDFATYYCQQYYTYPYTFGGGTKLEIK
notes: Human IgG1 and human Ckappa
For B9, the “EC50 (read off the curve)” value in [7] is roughly 0.06 µg/mL.
